Measurements as given in PMC6771245, “CMKLR1-targeting peptide tracers for PET/MR imaging of breast cancer” (Theranostics, 2019).
*1 amine or outer side, *2 acyl side, *3 side chain or, on linkers, in order; H or OH if unused. Where a SMILES comes first, the peptide text is derived from it. [ ]: non-standard residue; d: D form. The star is where a group is joined. X1 = O=C(O)CN1CCN(CC(=O)O)CCN(CC(=O)NCCCOCCOCCOCCCN*)CCN(CC(=O)O)CC1; DOTA = O=C(O)CN1CCN(CC(=O)O)CCN(CC(=O)*)CCN(CC(=O)O)CC1; NH(CH2)9CO = O=C(CCCCCCCCCN[*:1])[*:2]; Hyp = O=C(O)[C@@H]1C[C@@H](O)CN1; Tic = O=C(O)[C@@H]1Cc2ccccc2CN1; Cha = N[C@@H](CC1CCCCC1)C(=O)O; Cit = NC(=O)NCCC[C@H](N)C(=O)O; Suc = O=C(CCC(=O)[*:2])[*:1]; Octanoyl = CCCCCCCC(=O)*; Ahx = NCCCCCC(=O)O

How the values were obtained:
[1] = tested on: DU4475/A549 xenograft model; experiment: in vivo; settings: mouse
From the text: (§1) For in vivo experiments, at least 8-week-old female athymic NMRI-Foxn1^nu /Foxn1^nu mice (Janvier Labs, Saint-Berthevin, France) were used. Animal care followed institutional guidelines and all experiments were approved by local animal research authorities. For the generation of tumor xenografts, 5 x 10^6 cells of both DU4475 and A549 cells were inoculated subcutaneously into the right and left shoulder, respectively (1:1 phosphate-buffered saline [PBS]/Matrigel Basement Membrane Matrix High Concentration, Corning, Corning, USA). Part of the animals received SW13 lung cancer cells as a CMKLR1-negative control tumor. For the analysis of biodistribution, only data of […] and A549 xenograft tumors are used. Tumors were allowed to grow for two to four weeks (tumor volume > 100 mm^3) after cell inoculation.
(§2) Radiolabeling experiments were performed on a Modular Lab PharmTracer synthesis module (Eckert & Ziegler, Berlin, Germany) which allows fully automated cassette-based labeling of gallium tracers utilizing a pharmaceutical grade ^68Ge/^68Ga generator (GalliaPharm, 1.85 GBq, good manufacturing practice [GMP]-certified; Eckert & Ziegler GmbH, Berlin, Germany). Cassettes were GMP-certified and sterile. They were used without pre-conditioning of the cartridges. The gallium generator was eluted with aqueous HCl (0.1 M, 7 mL) and the eluate was purified on an ion-exchange cartridge followed by elution using 1 mL of 0.1 M HCl in acetone. The peptide-DOTA conjugate (50 µg from a stock solution 1 mg/mL in 10% dimethyl sulfoxide [DMSO] in water) was mixed with 500 µL 0.1 M HEPES buffer (pH 7) and heated for 500 seconds at 95 °C. After the reaction, the mixture was passed through a C-18 cartridge for purification and the tracer was eluted from the cartridge with ethanol. In order to control the quality of radiolabeling, the radiochemical yield, purity, and specific activity for all five peptide-DOTA conjugates and each individual labeling experiment was determined. Overall, a radiochemical yield of 82.1% ± 6.7%, a radiochemical purity of 98.1 ± 4.6% and a molar activity of 8.6 GBq/µmol ± 2.7 GBq/µmol was achieved (Table S1). Before animal injection, the activity was equilibrated to neutral pH using 1 M sodium hydrogen carbonate. It was further diluted with saline to ≤ 10% ethanol.
(§3) Tumor-bearing mice were injected with approximately 10 MBq of ^68Ga-labeled DOTA-peptide or 1 MBq of ^177Lu-labeled DOTA-peptide to the tail vein via a catheter. Mice were sacrificed and dissected one or two hours after injection. Tumor, blood, stomach, pancreas, small intestine, colon, liver, spleen, kidney, heart, lung, muscle and femur samples were weighed and uptake of radioactivity was measured by a gamma counter. To determine the effect of unlabeled ligand on the tumor uptake, 200 nmol CG34 peptide (100-fold excess) was co-injected.

in vivo = settings: female, mouse, iv, 10 MBq, total radioactivity
From the text: as §1, §2, §3

[2] = athymic NMRI-Foxn1^nu/Foxn1^nu, A549 tumor uptake
[3] = athymic NMRI-Foxn1^nu/Foxn1^nu, DU4475 tumor uptake
[4] = athymic NMRI-Foxn1^nu/Foxn1^nu, blood uptake
[5] = athymic NMRI-Foxn1^nu/Foxn1^nu, heart uptake
[6] = athymic NMRI-Foxn1^nu/Foxn1^nu, kidney uptake
[7] = athymic NMRI-Foxn1^nu/Foxn1^nu, liver uptake
[8] = athymic NMRI-Foxn1^nu/Foxn1^nu, lung uptake
[9] = athymic NMRI-Foxn1^nu/Foxn1^nu, muscle uptake
[10] = athymic NMRI-Foxn1^nu/Foxn1^nu, spleen uptake
[11] = athymic NMRI-Foxn1nu/Foxn1nu, colon uptake
[12] = athymic NMRI-Foxn1nu/Foxn1nu, femur uptake
[13] = athymic NMRI-Foxn1nu/Foxn1nu, muscle uptake
[14] = athymic NMRI-Foxn1nu/Foxn1nu, pancreas uptake
[15] = athymic NMRI-Foxn1nu/Foxn1nu, small intestine uptake
[16] = athymic NMRI-Foxn1nu/Foxn1nu, spleen uptake
[17] = athymic NMRI-Foxn1nu/Foxn1nu, stomach uptake
[18] = athymic NMRI-Foxn1nu/Foxn1nu, tumor-to-blood ratio
[19] = athymic NMRI-Foxn1nu/Foxn1nu, tumor-to-kidney ratio
[20] = athymic NMRI-Foxn1nu/Foxn1nu, tumor-to-liver ratio
[21] = athymic NMRI-Foxn1nu/Foxn1nu, tumor-to-muscle ratio
[22] = athymic NMRI-Foxn1nu/Foxn1nu, tumor-to-pancreas ratio

Structure (SMILES)	DU4475 tumor uptake after two hours as % of the 1 h-value [1]	higher uptake in CMKLR1-positive DU4475 tumors than in target-negative A549 tumors [1]	tissue uptake at 1 h (in vivo; [2])	tissue uptake at 1 h (in vivo; [3])	tissue uptake at 2 h (in vivo; [3])	tissue uptake at 1 h (in vivo; [4])	tissue uptake at 2 h (in vivo; [4])	tissue uptake at 1 h (in vivo; [5])	tissue uptake at 2 h (in vivo; [5])	tissue uptake at 1 h (in vivo; [6])	tissue uptake at 2 h (in vivo; [6])	tissue uptake at 1 h (in vivo; [7])	tissue uptake at 2 h (in vivo; [7])	tissue uptake at 1 h (in vivo; [8])	tissue uptake at 2 h (in vivo; [8])	tissue uptake at 1 h (in vivo; [9])	tissue uptake at 1 h (in vivo; [10])	tissue uptake at 1 h (in vivo; [11])	tissue uptake at 2 h (in vivo; [11])	tissue uptake at 1 h (in vivo; [12])	other results
CCCCCCCC(=O)NCCCC[C@H](NC(=O)CN1CCN(CC(=O)O)CCN(CC(=O)O)CCN(CC(=O)O)CC1)C(=O)N[C@@H](Cc1ccc(O)cc1)C(=O)N[C@@H](CC1CCCCC1)C(=O)N1C[C@H](O)C[C@H]1C(=O)NCC(=O)N[C@@H](CCCNC(N)=O)C(=O)N[C@@H](Cc1ccccc1)C(=O)N[C@H](C)C(=O)N1Cc2ccccc2C[C@H]1C(=O)N[C@@H](CO)C(=O)O [[^68Ga]Ga-DOTA-KCap-CG34, metal not drawn] ({DOTA}-K(Octanoyl)Y[Cha][Hyp]G[Cit]F[dA][Tic]S-OH)	approx. 88%	1.4 fold	2.3 %ID/g	3.3 %ID/g	2.9 %ID/g	0.6 %ID/g	0.2 %ID/g	1.1 %ID/g	0.8 %ID/g	5.8 %ID/g	6.5 %ID/g	2.2 %ID/g	1.8 %ID/g	1.7 %ID/g	1.2 %ID/g	0.6 %ID/g	4.9 %ID/g	2.4 %ID/g	1.7 %ID/g	0.6 %ID/g	tissue uptake at 2 h (in vivo; [12]): 0.5 %ID/g; tissue uptake at 2 h (in vivo; [13]): 0.4 %ID/g; tissue uptake at 1 h (in vivo; [14]): 0.9 %ID/g; tissue uptake at 2 h (in vivo; [14]): 0.7 %ID/g; tissue uptake at 1 h (in vivo; [15]): 2.3 %ID/g; tissue uptake at 2 h (in vivo; [15]): 1.9 %ID/g; tissue uptake at 2 h (in vivo; [16]): 4 %ID/g; tissue uptake at 1 h (in vivo; [17]): 1.4 %ID/g; tissue uptake at 2 h (in vivo; [17]): 1.1 %ID/g; tissue to tissue ratio at 1 h (in vivo; [18]): 5.6; tissue to tissue ratio at 2 h (in vivo; [18]): 18.2; tissue to tissue ratio at 1 h (in vivo; [19]): 0.7; tissue to tissue ratio at 2 h (in vivo; [19]): 0.6; tissue to tissue ratio at 1 h (in vivo; [20]): 1.6; tissue to tissue ratio at 2 h (in vivo; [20]): 1.8; tissue to tissue ratio at 1 h (in vivo; [21]): 6.6; tissue to tissue ratio at 2 h (in vivo; [21]): 7.2; tissue to tissue ratio at 1 h (in vivo; [22]): 3.7; tissue to tissue ratio at 2 h (in vivo; [22]): 4.3
CSCC[C@H](NC(=O)CNC(=O)[C@@H]1CCCN1C(=O)[C@H](CC1CCCCC1)NC(=O)[C@H](Cc1ccc(O)cc1)NC(=O)CCCCCNC(=O)CN1CCN(CC(=O)O)CCN(CC(=O)O)CCN(CC(=O)O)CC1)C(=O)N[C@@H](Cc1ccc(O)cc1)C(=O)N[C@@H](C)C(=O)N[C@@H](Cc1ccccc1)C(=O)N[C@H](Cc1ccccc1)C(=O)O [[^68Ga]Ga-DOTA-AHX-CG36, metal not drawn] ({DOTA-Ahx}-Y[Cha]PGMYAF[dF]-OH)	–	–	–	–	–	–	–	–	–	–	–	6.4 %ID/g	4.9 %ID/g	–	–	–	–	–	–	–	difference in uptake between target-positive and target-negative tumor [1]: no clear difference in uptake between target-positive and target-negative tumor
C[C@@H](NC(=O)[C@H](Cc1ccccc1)NC(=O)[C@H](CCCNC(N)=O)NC(=O)CNC(=O)[C@@H]1C[C@@H](O)CN1C(=O)[C@H](CC1CCCCC1)NC(=O)[C@H](Cc1ccc(O)cc1)NC(=O)CCCCCCCCCNC(=O)CN1CCN(CC(=O)O)CCN(CC(=O)O)CCN(CC(=O)O)CC1)C(=O)N1Cc2ccccc2C[C@H]1C(=O)N[C@@H](CO)C(=O)O [[^68Ga]Ga-DOTA-ADX-CG34, metal not drawn] ({DOTA}-[NH(CH2)9CO]Y[Cha][Hyp]G[Cit]F[dA][Tic]S-OH)	approx. 68%	2.3 fold	2.7 %ID/g	6.2 %ID/g	4.2 %ID/g	2.8 %ID/g	0.8 %ID/g	2.2 %ID/g	1.2 %ID/g	10.3 %ID/g	5.5 %ID/g	14.2 %ID/g	12.5 %ID/g	7.1 %ID/g	3.9 %ID/g	1.1 %ID/g	7.8 %ID/g	3.2 %ID/g	2.3 %ID/g	1.3 %ID/g	tissue uptake at 2 h (in vivo; [12]): 0.7 %ID/g; tissue uptake at 2 h (in vivo; [13]): 0.6 %ID/g; tissue uptake at 1 h (in vivo; [14]): 1.7 %ID/g; tissue uptake at 2 h (in vivo; [14]): 1.1 %ID/g; tissue uptake at 1 h (in vivo; [15]): 3.8 %ID/g; tissue uptake at 2 h (in vivo; [15]): 4.4 %ID/g; tissue uptake at 2 h (in vivo; [16]): 5.4 %ID/g; tissue uptake at 1 h (in vivo; [17]): 2.2 %ID/g; tissue uptake at 2 h (in vivo; [17]): 1.5 %ID/g; tissue to tissue ratio at 1 h (in vivo; [18]): 3; tissue to tissue ratio at 2 h (in vivo; [18]): 5.7; tissue to tissue ratio at 1 h (in vivo; [19]): 0.8; tissue to tissue ratio at 2 h (in vivo; [19]): 0.8; tissue to tissue ratio at 1 h (in vivo; [20]): 0.4; tissue to tissue ratio at 2 h (in vivo; [20]): 0.3; tissue to tissue ratio at 1 h (in vivo; [21]): 6.3; tissue to tissue ratio at 2 h (in vivo; [21]): 7.2; tissue to tissue ratio at 1 h (in vivo; [22]): 3.9; tissue to tissue ratio at 2 h (in vivo; [22]): 3.9
C[C@@H](NC(=O)[C@H](Cc1ccccc1)NC(=O)[C@H](CCCNC(N)=O)NC(=O)CNC(=O)[C@@H]1C[C@@H](O)CN1C(=O)[C@H](CC1CCCCC1)NC(=O)[C@H](Cc1ccc(O)cc1)NC(=O)CCC(=O)NCCCOCCOCCOCCCNC(=O)CN1CCN(CC(=O)O)CCN(CC(=O)O)CCN(CC(=O)O)CC1)C(=O)N1Cc2ccccc2C[C@H]1C(=O)N[C@@H](CO)C(=O)O [[^68Ga]Ga-DOTA-TTDS-CG34, metal not drawn] ({X1-Suc}-Y[Cha][Hyp]G[Cit]F[dA][Tic]S-OH)	–	–	–	–	–	–	–	–	–	–	–	–	–	–	–	–	–	–	–	–	difference in uptake between target-positive and target-negative tumor [1]: no clear difference in uptake between target-positive and target-negative tumor
C[C@@H](NC(=O)[C@H](Cc1ccccc1)NC(=O)[C@H](CCCNC(N)=O)NC(=O)CNC(=O)[C@@H]1C[C@@H](O)CN1C(=O)[C@H](CC1CCCCC1)NC(=O)[C@H](Cc1ccc(O)cc1)NC(=O)CCCCCNC(=O)CN1CCN(CC(=O)O)CCN(CC(=O)O)CCN(CC(=O)O)CC1)C(=O)N1Cc2ccccc2C[C@H]1C(=O)N[C@@H](CO)C(=O)O [[^68Ga]Ga-DOTA-AHX-CG34, metal not drawn] ({DOTA-Ahx}-Y[Cha][Hyp]G[Cit]F[dA][Tic]S-OH)	approx. 96%	1.7 fold	3 %ID/g	5.1 %ID/g	4.9 %ID/g	1.2 %ID/g	0.4 %ID/g	1.2 %ID/g	1.1 %ID/g	6.5 %ID/g	6.6 %ID/g	2.4 %ID/g	2.4 %ID/g	4.2 %ID/g	2.8 %ID/g	0.7 %ID/g	6.3 %ID/g	2.7 %ID/g	2.6 %ID/g	0.8 %ID/g	tissue uptake at 2 h (in vivo; athymic NMRI-Foxn1nu/Foxn1nu, A549 tumor uptake): 1.4 %ID/g; tissue uptake at 2 h (in vivo; [12]): 0.7 %ID/g; tissue uptake at 2 h (in vivo; [13]): 0.5 %ID/g; tissue uptake at 1 h (in vivo; [14]): 1 %ID/g; tissue uptake at 2 h (in vivo; [14]): 0.8 %ID/g; tissue uptake at 1 h (in vivo; [15]): 2.1 %ID/g; tissue uptake at 2 h (in vivo; [15]): 2 %ID/g; tissue uptake at 2 h (in vivo; [16]): 5 %ID/g; tissue uptake at 1 h (in vivo; [17]): 1.7 %ID/g; tissue uptake at 2 h (in vivo; [17]): 1.3 %ID/g; tissue to tissue ratio at 1 h (in vivo; [18]): 5.9; tissue to tissue ratio at 2 h (in vivo; [18]): 13.3; tissue to tissue ratio at 1 h (in vivo; [19]): 0.9; tissue to tissue ratio at 2 h (in vivo; [19]): 0.7; tissue to tissue ratio at 1 h (in vivo; [20]): 2.3; tissue to tissue ratio at 2 h (in vivo; [20]): 2.2; tissue to tissue ratio at 1 h (in vivo; [21]): 8.5; tissue to tissue ratio at 2 h (in vivo; [21]): 11.4; tissue to tissue ratio at 1 h (in vivo; [22]): 5.6; tissue to tissue ratio at 2 h (in vivo; [22]): 6.2
